Test results: patent US20210283246A1

Molecular target: HBsAg (patient serum)
Test: Jacalin-bead fractionation of patient serum, HBsAg measured by CLIA

## Jacalin lectin (from UniProt P18670 1-133)
  share of the total serum HBsAg that binds to Jacalin: 5%
